These results are taken from patent publication US20240109955A1.

Assay in all cases: cell-based or functional assay
Test [1] deals with SARS-CoV-2 spike (S) protein, Omicron variant BA.1 (SARS-CoV-2) (UniProt P0DTC2).
Test [2] addresses SARS-CoV-2 spike protein, Mu variant (B.1.621) (SARS-CoV-2).
Test [3] deals with SARS-CoV-2 spike protein, Kappa variant (B.1.617.1) (SARS-CoV-2).
The target of test [4] is SARS-CoV-2 spike (S) protein, Omicron variant BA.2.12.1 (SARS-CoV-2) (UniProt P0DTC2).
The target of test [5] is SARS-CoV-2 spike protein, C.1.2 variant (SARS-CoV-2).
The target in test [6] is SARS-CoV-2 spike protein, Iota variant (B.1.526) (SARS-CoV-2).
Test [7] deals with SARS-CoV-2 spike protein, Gamma variant (P.1) (SARS-CoV-2).
Test [8] has as its target SARS-CoV-2 spike protein, Delta variant (B.1.617.2) (SARS-CoV-2).
In test [9] the target is SARS-CoV-2 spike protein, Lambda variant (C.37) (SARS-CoV-2).
The target in test [10] is SARS-CoV-2 spike protein, Beta variant 1 (B.1.351 v1) (SARS-CoV-2).
In test [11] the target is SARS-CoV-2 spike protein, Delta variant (AY.1) (SARS-CoV-2).
The target in test [12] is SARS-CoV-2 spike (S) protein, Omicron variant BA.2 (SARS-CoV-2) (UniProt P0DTC2).
Test [13] deals with SARS-CoV-2 spike protein, Alpha variant (B.1.1.7) (SARS-CoV-2).
Test [14] addresses SARS-CoV-2 Omicron BA.4.6 spike protein (R346T, F486V) (SARS-CoV-2) (UniProt P0DTC2).
Test [15] concerns the target SARS-CoV-2 spike (S) protein, Omicron sublineage BA.4.7 (R346S, F486V) (SARS-CoV-2) (UniProt P0DTC2).
Test [16] has as its target SARS-CoV-2 spike (S) protein, Omicron sublineage BF.7 (R346T, F486V) (SARS-CoV-2) (UniProt P0DTC2).
In test [17] the target is SARS-CoV-2 spike (S) protein, Omicron sublineage BA.4.6 (R346T, F486V) (SARS-CoV-2) (UniProt P0DTC2).
In test [18] the target is SARS-CoV-2 spike (S) protein, Omicron sublineage BA.1.1 (R346K) (SARS-CoV-2) (UniProt P0DTC2).
Test [19] concerns the target SARS-CoV-2 spike (S) protein, Omicron sublineage BQ 1.1 (R346T, K444T, F486V) (SARS-CoV-2) (UniProt P0DTC2).
The target of test [20] is SARS-CoV-2 spike (S) protein, Omicron variant BA.4/5 (SARS-CoV-2) (UniProt P0DTC2).
The target in test [21] is SARS-CoV-2 spike protein, Beta variant 1 (B.1.351.v1) (SARS-CoV-2).
Test [22] addresses SARS-CoV-2 spike (S) protein, C.1.2 variant (SARS-CoV-2) (UniProt P0DTC2).
Test [23] concerns the target SARS-CoV-2 spike (S) protein, Mu variant (B.1.621) (SARS-CoV-2) (UniProt P0DTC2).

Bounds are passed on as bounds.

A19-46 mAb (antibody), sequence (VH): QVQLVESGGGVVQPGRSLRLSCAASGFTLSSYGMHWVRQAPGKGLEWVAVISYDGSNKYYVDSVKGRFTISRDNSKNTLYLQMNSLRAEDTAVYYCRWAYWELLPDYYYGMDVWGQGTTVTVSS
A19-46 mAb (antibody), sequence (VL): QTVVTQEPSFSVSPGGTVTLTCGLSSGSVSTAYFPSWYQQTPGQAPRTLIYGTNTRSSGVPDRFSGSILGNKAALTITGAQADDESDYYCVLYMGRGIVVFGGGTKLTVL
MX413 (A19-61 x A23-58H/B1-182L) (bispecific antibody), sequence (chain): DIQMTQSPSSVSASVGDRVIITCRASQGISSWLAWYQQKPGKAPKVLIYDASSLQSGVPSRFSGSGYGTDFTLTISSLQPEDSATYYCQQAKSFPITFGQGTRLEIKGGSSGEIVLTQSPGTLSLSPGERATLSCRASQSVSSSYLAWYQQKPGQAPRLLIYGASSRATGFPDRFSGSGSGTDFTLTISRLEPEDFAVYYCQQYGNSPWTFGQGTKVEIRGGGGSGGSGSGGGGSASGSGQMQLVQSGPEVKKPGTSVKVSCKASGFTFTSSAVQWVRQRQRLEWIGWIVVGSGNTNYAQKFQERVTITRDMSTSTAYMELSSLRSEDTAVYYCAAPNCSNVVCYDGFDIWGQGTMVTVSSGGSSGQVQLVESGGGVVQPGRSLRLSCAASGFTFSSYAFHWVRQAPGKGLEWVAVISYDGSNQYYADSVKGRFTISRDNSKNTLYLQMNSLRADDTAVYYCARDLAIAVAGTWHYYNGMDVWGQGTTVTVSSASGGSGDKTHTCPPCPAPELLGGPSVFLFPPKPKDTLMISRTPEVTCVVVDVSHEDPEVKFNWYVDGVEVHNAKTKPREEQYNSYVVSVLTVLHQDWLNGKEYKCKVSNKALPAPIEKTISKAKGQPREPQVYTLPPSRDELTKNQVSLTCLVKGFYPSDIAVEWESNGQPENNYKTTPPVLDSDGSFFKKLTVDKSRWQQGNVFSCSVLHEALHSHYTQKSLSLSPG
MX492 (A19-46 x A23-58H/B1-182L) (bispecific antibody), sequence (chain): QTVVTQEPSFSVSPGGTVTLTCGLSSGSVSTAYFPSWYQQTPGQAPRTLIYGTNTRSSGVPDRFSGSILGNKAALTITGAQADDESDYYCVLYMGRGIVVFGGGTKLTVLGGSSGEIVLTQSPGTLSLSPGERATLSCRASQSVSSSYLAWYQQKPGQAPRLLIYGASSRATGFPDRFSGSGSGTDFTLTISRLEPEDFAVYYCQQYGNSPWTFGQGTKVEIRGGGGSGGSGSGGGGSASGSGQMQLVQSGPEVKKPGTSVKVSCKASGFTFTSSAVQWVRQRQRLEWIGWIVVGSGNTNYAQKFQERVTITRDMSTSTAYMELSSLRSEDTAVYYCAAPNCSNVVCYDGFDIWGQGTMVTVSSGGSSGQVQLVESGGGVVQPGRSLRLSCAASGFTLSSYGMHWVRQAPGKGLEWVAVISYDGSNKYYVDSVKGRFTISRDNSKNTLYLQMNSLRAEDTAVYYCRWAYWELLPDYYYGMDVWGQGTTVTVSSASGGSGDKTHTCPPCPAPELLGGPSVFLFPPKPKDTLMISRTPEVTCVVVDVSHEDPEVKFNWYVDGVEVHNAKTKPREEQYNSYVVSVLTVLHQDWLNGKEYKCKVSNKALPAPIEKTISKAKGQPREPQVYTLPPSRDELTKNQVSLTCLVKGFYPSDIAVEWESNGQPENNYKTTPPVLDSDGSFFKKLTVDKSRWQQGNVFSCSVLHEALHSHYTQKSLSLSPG

In the case of A19-46 mAb (antibody), the IC50, pseudovirus neutralization in [1] was 0.958 nM; in test [2], 1.34 nM; in test [3] it was > 66.7 nM; in test [4], > 66.7 nM; in [5], 11.6 nM; in [6], 0.803 nM. The IC50, pseudovirus neutralization in [7] is 0.26 nM; in [8], > 66.7 nM; in test [9], > 66.7 nM; in test [10] it was 0.807 nM; in test [11], > 66.7 nM; in test [12], 0.0645 nM. The same substance gave an IC50, pseudovirus neutralization in test [13] of 0.19 nM. In addition, the IC80, pseudovirus neutralization in [1] was 2.28 nM; in test [2], 3.81 nM; in test [3], > 66.7 nM; in [4], > 66.7 nM; in test [5], 21 nM; in test [6], 1.88 nM. The IC80, pseudovirus neutralization in [7] is 0.7 nM; in test [8], > 66.7 nM; in test [9], > 66.7 nM; in test [10], 2.07 nM; in [11], > 66.7 nM; in test [12], 0.177 nM. The substance further displayed an IC80, pseudovirus neutralization in test [13] of 0.486 nM.
As to “MX492 (A19-46 x A23-58H/B1-182L) (bispecific antibody)”, the IC50, pseudovirus neutralization in [14] was > 10000 nM; in test [15] it was 13.3 nM; in test [16], > 10000 nM; in test [17] it was 21.4 nM; in [18], 8.77 nM; in [19], > 10000 nM. The IC80, pseudovirus neutralization in test [14] is > 10000 nM; in [15], 154 nM; in test [16], > 10000 nM; in [17] it was 24.5 nM; in test [18], 68 nM; in test [19], > 10000 nM.
For “MX413 (A19-61 x A23-58H/B1-182L) (bispecific antibody)”, the IC50, pseudovirus neutralization in test [14] is 10 nM; in test [15], 77.9 nM; in test [16], 28.1 nM; in test [17] it was 56 nM; in [18], 2.24 nM; in test [19], > 10000 nM. Moreover, the IC80, pseudovirus neutralization in test [14] was 25 nM; in [15] it was 126 nM; in test [16], 177 nM; in test [17], 155 nM; in [18], 10.5 nM; in test [19], > 10000 nM.
Turning to A19-61 mAb (antibody), the IC50, pseudovirus neutralization is > 66.7 nM in [1]; 0.264 nM in test [2]; 0.0815 nM in test [3]; 0.11 nM in test [4]; 8.43 nM in [5]; 0.0418 nM in test [6]. The IC50, pseudovirus neutralization amounted to 0.135 nM in test [7]; 0.209 nM in test [8]; 0.11 nM in [9]; 0.0686 nM in test [10]; 0.0557 nM in test [11]; 0.725 nM in test [12]. The substance also gave an IC50, pseudovirus neutralization in test [13] of 0.175 nM. Further, the IC80, pseudovirus neutralization is > 66.7 nM in test [1]; 0.43 nM in test [2]; 0.173 nM in [3]; 0.298 nM in test [4]; > 66.7 nM in test [5]; 0.0836 nM in test [6]. The IC80, pseudovirus neutralization was found to be 0.288 nM in [7]; 0.292 nM in test [8]; 0.186 nM in [9]; 0.113 nM in test [10]; 0.121 nM in test [11]; 2.24 nM in [12]. For the same substance, the IC80, pseudovirus neutralization in test [13] stood at 0.325 nM.
For A23_58.1 (antibody), the pseudovirus neutralization IC50 (nM (inferred)) in test [1] was 0.853; in [20], > 66.7; in test [4], 0.647; in [22], 0.0287; in test [23] it was 0.124; in test [12], 1.72. In addition, the pseudovirus neutralization IC80 (nM (inferred)) in [1] was 4.24; in [20] it was > 66.7; in test [4], 4.96; in [22], 0.0656; in test [23], 0.26; in test [12], 6.12. Moreover, the IC50, pseudovirus neutralization in test [21] was determined as 0.123 nM; in test [7] it was 0.0097 nM; in [8], 0.0133 nM; in [13], 0.0329 nM. Moreover, the IC80, pseudovirus neutralization in [21] amounted to 0.339 nM; in [7] it was 0.0437 nM; in test [8] it was 0.0358 nM; in test [13], 0.104 nM.
Turning to B1-182 mAb (antibody), the IC50, pseudovirus neutralization turned out to be 1.03 nM in test [1]; 0.0695 nM in [2]; 0.0261 nM in test [3]; 0.739 nM in test [4]; 0.0549 nM in test [5]; 0.0639 nM in test [6]. Moreover, the IC50, pseudovirus neutralization in test [7] stood at 0.0182 nM; in test [8] it was 0.0099 nM; in [9], 0.0049 nM; in test [10], 0.0357 nM; in test [11] it was 0.008 nM; in test [12], 2.34 nM. The IC50, pseudovirus neutralization in test [13] was 0.0262 nM. The IC80, pseudovirus neutralization in test [1] was determined as 4.44 nM; in test [2], 0.219 nM; in test [3], 0.086 nM; in test [4] it was 5.92 nM; in test [5], 0.11 nM; in [6], 0.183 nM. The IC80, pseudovirus neutralization in test [7] came to 0.0429 nM; in [8], 0.0254 nM; in test [9] it was 0.015 nM; in test [10] it was 0.139 nM; in test [11], 0.0192 nM; in [12] it was 8.19 nM. The IC80, pseudovirus neutralization in [13] is 0.0844 nM.
